# Experimental data taken from the DeepSol protein solubility set.
# Test: soluble on expression in E. coli; label from the status in PepcDB or PDB records
row,Sequence,soluble on expression in E. coli
1,MSLWYNRAMKHFDTIVIGGGPAGMMATISSSFYGQKTLLIEKNRKLGKKLAGTGGGRCNVTNNGSLDNLLAGIPGNGRFLYSVFSQFDNHDIINFFTENGVKLKVEDHGRVFPASDKSRTIIEALEKKITELGGQVATQIEIVSVKKVDDQFVLKSADQTFTCEKLIVTTGGKSYPSTGSTGFGHEIARHFKHTITDLEAAESPLLTDFPHKALQGISLDDVTLSYGKHVITHDLLFTHFGLSGPAALRMSSFVKGGEVLSLDVLPQLSEKDLVTFLEENREKSLKNALKTLLPERLAEFFVQGYPEKVKQLTEKEREQLVQSIKELKIPVTGKMSLAKSFVTKGGVSLKEINPKTLESKLVPGLHFAGEVMDINAHTGGFNITSALCTGWVAGSLHYDEGHHHHHH,soluble
2,MGSDKIHHHHHHMLISSRIVRSSLVNVPLRLSRCFTQAHRACKEEEVNSPLSSAAEQPEQKYTHFGSKTVLKSTKQKLVGDVFSSVANRYDLMNDVMSLGIHRLWKDHFINKLDAGKRPNSTTPLNFIDVAGGSGDIAFGLLDHAESKFGDTESTMDIVDINPDMLKEGEKRAMEQGKYFKDPRVRFLVSNGEKLEEIDSDSKDIYTVSFGIRNFTDIQKGLNTAYRVLKPGGIFYCLEFSKIENPLMDFAYQQWAKVLPVMGSMIANDYDSYQYLVESIERFPDQETFKSMIEKAGFKSAGYESLTFGICAIHWGIKV,not soluble
3,MKHSLPDLPYDYADLEPVISHEIMQLHHQKHHATYVNNLNQIEEKLHEAVSKGNVKEAIALQPALKFNGGGHINHSIFWTNLAKDGGEPSAELLTAIKSDFGSLDNLQKQLSASTVAVQGSGWGWLGYCPKGKILKVATCANQDPLEATTGLVPLFGIDVWEHAYYLQYKNVRPDYVNAIWKIANWKNVSERFAKAQQ,soluble
4,MVLFDQATYEKLLIEAPKFKLITPSILSDRMRVYICIYLLISYSRNDSYIIWQ,not soluble
5,MGSSHHHHHHSSGLVPRGSHMDAETVGRVKRFIQENVFVAANHNGSPLSIKEAPKELSFGARAELPRIHPVASKLLRLMQKKETNLCLSADVSLARELLQLADALGPSICMLKTHVDILNDFTLDVMKELITLAKCHEFLIFEDRKFADIGNTVKKQYEGGIFKIASWADLVNAHVVPGSGVVKGLQEVGLPLHRGCLLIAEMSSTGSLATGDYTRAAVRMAEEHSEFVVGFISGSRVSMKPEFLHLTPGVQLEAGGDNLGQQYNSPQEVIGKRGSDIIIVGRGIISAADRLEAAEMYRKAAWEAYLSRLGV,soluble
6,MGMIQLQNPSHPTGLLCKANQMRLAGTLCDVVIMVDSQEFHAHRTVLACTSKMFEILFHRNSQHYTLDFLSPKTFQQILEYAYTATLQAKAEDLDDLLYAAEILEIEYLEEQCLKMLETIQ,soluble
7,MVASCKSTSQPVSLSQKDSSPDFNRCRNDSEDTVNLTGSGDIYIDKESSQKALDDLLRKVTLDGGISLKDAKSSEILAAYERKIQMLQLELQMKNVPKPVVEIETTSQKIRDLAQECEALRDSNKQLTDHMTRGNLEINQLKVQLEEVKQKCDSIETSLGMCITEKAGLKTQLTESLQNAERNVHTAQNEISKLNTELAQSVTRIELFLAENRELKQEFEEKVVECEVLKEHIRQIDLELKNKQSDMERALLQISAAEQKAAKKELELIEAEKHLKLYESRLSDRERDLNAKNLEIDRLKLDLDAARRNLQKLEQMREAMLSLASSSSN,not soluble
8,MSLEEWIKADSLEKADEYHKRYNYAVTNPVRRKILRMLDKGRSEEEIMQTLSLSKKQLDYHLKVLEAGFCIERVGERWVVTDAGKIVDKIRG,soluble
9,MGSDKIHHHHHHMTVMNAYQELESQGLIYSKEKSGYFVAEQIALKPLEQYSIVSLNSKIEINSLVFKYLKSIQHESVVPFGSAFPDSQLLAAPKLIQIMGQLARQRQSYDQTASLPPGNLALRKLIAQRYCMQGIQTDPDDIVITSGGLDALNLSLQAVAKPGDYILLQQTVFYGAWQAAERLGLKVITIPEHPQHGFDLEAFEQVIHTYPIKVCWLMLNSHNPIGFTVSDEIKYKIAKLLHEHQIYLIEDDVYEELYYGGQKPLSMKYFDQQNLVLHCSSFSKTLGAGFRVGWVYAGKFSDHIQHLQLMSTISVNALIQNALVEFLSHHHYEKHLRTLRLSLERYKKQFYHYLKQHLPAICEIYYYPSGYFLWVKLPHKLDSMQIYEELIQQDIGVAPSPLFSVLPAQQHYLRINCSFEWNEKIQAALDQVIKTIQQRVEASL,not soluble
10,MSLDGTVLLIDYFEYEREKTKIIFDNIGEYDFIEVENLKKFYSIFKDLDSITLIIMDIAFPVEKEGLEVLSAIRNNSRTANTPVIIATKSDNPGYRHAALKFKVSDYILKPYPTKRLENSVRSVLKICQRFRYEFDSAHVISMSIEDYISKEFKVASRAGQSLSVILMAPVGLEKEPSEQSTQISSELQDQIQNLAIEKVKLSLRSTDTAILNANRDILVILPFTNAAGAQKVLQKIQDNVREGLKSLNINYDDYYYAVSVTFPNDGKTFQSLMEKAVKKVEDKIMLEKITSIGVNILDNARNSYKKFNKEGHHHHHH,soluble
11,GPGSMPADKSYALKQVQTFGKKKTAIAVATVTKAAQCNIKVNGVPLQQILPDTLRAKIMEAITVVGSKYYSRLRIDVAVHGGGQVSQAYAARQAIAKGLIAFFQKYHNEVEKAALKDKFLAYDKFLLIADPRRCEPKKWGRHSARTRFTKSYR,soluble
12,MSVVSNHHSNGNGNSTVYDTNGNDEIKKEVKDEPMASDSEVPFGELMKRDKKEKKQKKRKAESGSDEDDYKPEKRKSSAKNGKKKDVGSDSEDDYKPEKKKSKKNNKKKAQESSEDDDEESEGDVSEEDVKPQIHSDDELEEEDEAPTTDDEEEQKRKEKERRKKEKREKKERKEKKRLEKENRKIKEEDDEDSDDEDDEKAKKKKRKSKGAEKSKPSTSKKDAGGKKEPPKKKVKKEEDIEDIWEWWKEEKKPAGVKWNSLQHCGPLFAPPYIPLPSHVHFKYGGEKMKLTLETEEIAQFYAGVLDHEYSTKEAFNKNFMKDWRKVMTVEERERIHDLKKCDFRAIDAYQKEQREIRKAMTKEEKLKIKEEKEAEVKIYGIAIIDGHRQKVANFRIEPPGVFRGRGGHPKMGLIKKRIMPEDVIINCGKDTEIPKPPPGHKWKEVRHDNTVTWLCSWTESVLGQNKYIMLNPSSKIKGEKDFEKYETARRLKKKIGGIRERYTDDFKSKEMRVRQRATALYFIDKLALRAGNEKDVDEAADTVGCCSLRVEHIKLFDSAKLNEDDKKEKEFVVEFDFLGKDSIRYFNRVSVEKRVYKNLKIFMEGKAPSDDLFDRLDTATLNDHLRSLMDGLTVKVFRTYNASITLQEQLIKLTNPKDNVAAKILSYNRANRQVAILCNHQRAVSKGFDESMQKLEQKIKDKKKEVKEAEAALKSARGAEKEKAQKKYDRLKEQLKKLKISRTDKDENKQIALGTSKLNYIDPRITVAWCKKFEVPLEKVFTKTHREKFRWAIDMTNSSDEEYVF,soluble
13,MWQAISQQLSDTLLFEYQITEKVRLSGGDISESYMINDGEQRYFVKINDREFLHKFEVEAESLHLLRETSTIFVPEVVLVGKTKNNAFIILNYLPTKPLDDPENSFKFGQQLAQLHQWGEQKEFGFDTDNYLGSTLQPNQWHKKWCMFFAEQRIGWQLQLLKEKGVTLVDIDDFIDVVKQLLANHTPEPSLLHGDLWNGNVALTAFGPICFDPACYWGDRECDIAMTELFGGFQPEFYQGYESVMPLLPGYHERKDIYNLYHILNHCNLFGGHYLEQAQLTINKIISYLEHHHHHH,soluble
14,MGSDKIHHHHHHMMDTVKNRRTIRKYQQKDITPDLLNDLLETSFRASTMGGMQLYSVVVTRDAEKKEILSPAHFNQPMVKEAPVVLTFCADFRRFCKYCQERNAVPGYGNLMSFLNAAMDTLLVAQTFCTLAEEAGLGICYLGTTTYNPQMIIDALHLPELVFPITTVTVGYPAESPKQVDRLPIEGIIHEESYHDYTAEDINRLYAYKESLPENKLFIEENQKETLPQVFTDVRYTKKDNEFMSENLLKVLRRQGFMD,not soluble
15,MAYKKVLLAVNVYENADIVINSAVDFAKKNNTQVLKVVTVIDCVAPFAPSIVDFQHSIEQEAKEALDKLVTKISGIKVEHEVLVGNPAAEIVEYAEESNCDVIVLGSHATHGINLLLGSVANTVLHKAKCDVLTVRVNDDENADSKAHSYKRLLVPTDLENDSYVVVDKAKDIAKLYSAKIDTAFVIPNDSISLMTYETDKVETTLDKFAEKNGITGEKSVMIGGISNSLLEKAAENKNDLIVVGSHRRGAIGRFFLGSTANSILHQANVDVLVVRLK,soluble
16,MKQKRSSSGLKKRIFSTFGKASEERPSLLLLDLPIDILLAITKQLDTETRMIVRKVSPAFRDIIDYQGSGVKTMKIGKDCITIDWKRIEYREGVHCSCLIIYQGHIKTKIYESPQSLMFQDLSILLKSPRIRLSWLDLAPISCTSYNWTGVDVNSIVKILEPIKSRHIERVYFQDINYAEVVLILQKFKAGFLREISLDSEQINGWSIPQIGGMVHLEQWKRAQHLKIHSFVNLDPLINHISHFHTIQLLCQSMSKLQMLKWKEIINTSKTLVKCVLRGNANFAGLARVFDPAFEQAYGNISYVSADEFNCTIRFMPENFCIMKLK,not soluble
17,MDMGLREMCVGEKRTVIIPPHLGYGEAGVDGEVPGSAVLVFDIELLELVAGLPEGYMFIWNGEVSPNLFEEIDKDGNGEVLLEEFSEYIHAQVASGKGKLAPGFDAELIVKNMFTNQDRNGDGKVTAEEFKLKDQEAKQDEL,soluble
18,MTEDALNRIADALERMAPAPLRAPDFAVAPAFVWHVAPERLEPVRDVNRVDLDLLVGINRARDTLLDNTRRFAAGHGANNALLWGARGMGKSSLVKAVHGALQPEFPNLKLVELQREDLPSVARLLNHLRAAPERFILFCDDLSFSHDDQHYKSLKAVLDGGIEGRPENVVFYATSNRRHLMPRDMIENERSSAINPSEAVEEKVSLSDRFGLWLGFHPCDQDEYLAMIDGYCAAYGVSVAPDTLRAEAIEWQATRGARSGRVAWQFFTDLAGRQGIALRLEHHHHHH,soluble
19,MGSDKIHHHHHHMKIAQIAPLFEAVPPRLYGGTERVVASICDALVKAGHQVDLYASGDSQSKARLIPCRERALRLDPAPLKSDIAAHYTLLDEVRRHAGEYDILHFHTDMLHFPFFEPIASKTLTTLHGRLDMADLPNAFKRWRQFPLVSISNDQRRALPGANWAGTVYHGLDPALYRFNPNPQGGYLAFLGRISPEKRPDRAIAIARKAGIPLKIAAKVDAADLNYYNDVIKPLLNQADVEFIGEITDAQKNDFLGNALALLFPVDWPEPFGLVMIEAMACGTPVIAWRCGSVPEIIEPGRNGFIVTDEHQAAAACHAATTLDRAKVREAFDMRFTSDVMAEHYLKLYKRLAASANDDNLMESQVG,not soluble
20,MMKKALLIDDECWLRVQARDASADGRFVFAVRTTGVFCRPSCRSKRALRKNVRFFANAQQALDAGFRPCKRCQPDNARAQQRRLDKIACACRLLEQETPVTLAFLAQAVAMSPFHLHRLFKASTGMTPKGWQQAWRARRLREALAKGEPITAAIYRAGFPDSSSYYRHADQTLGMTAKQFRKGGDNVSVRYALTDWVYGRCLVAESERGICAILPGDSDDALLAELHTLFPSARHEPADALFQQRVRQVVAAINTRDVLLSLPLDIQGTAFQQQVWQALCAIPCGETVSYQQLAATIGKPTAVRAVASACGANKLAMVIPCHRVVRRDGALSGYRWGVRRKAQLLKREAQKEE,not soluble
21,MKSAELKYLDFEDFTKLIALAKEKINPIYSSSFMIYIAAMTGMRFSELLGLTWDNVDFEKGQIYVKRTWDIYKNNFAPTKNDQSVRFLAIDSSTMQVMINYKEQQEKLLKRLEIEPEHPFVFYNIKNGLITNNSLNKQLRNMCKKLGFKKIITCHGLRHTHASTMLYKGINILYVSKRLGHSSLNVTMSVYSHILKELEEKDNENIKKIFSEINDELEHHHHHH,soluble
